# Source: patent US20220409745, “COMPOSITIONS AND METHODS OF USING ENGINEERED FUSION PROTEINS THAT BIND G4C2 HUMAN REPEATS” (The Regents of the University of California, published 2022)
# How the values were obtained:
# [1] = biological target: T1, ZFP106 Znf1 (Z1) (Homo sapiens, UniProt Q9H2Y7 SEQ:1-25); assay: EMSA; binds G-q structure; details: G4
# [2] = biological target: T1, ZFP106 Znf1 (Z1); assay: EMSA; binds non-G-q structure; details: non-G4
# T1 sequence (Q9H2Y7 20-44): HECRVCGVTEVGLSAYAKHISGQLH
Binder,binding result [1],binding result [2]
GGGGCCGGGGCCGGGGCCGGGGCCGGGGCCGGGGCCGGGGCCGGGGCC (ssRNA) [(G4C2)8 RNA G-quadruplex],binds,
GGGGCCGGGGCCGGGGCCGGGGCCGGGGCCGGGGCCGGGGCCGGGGCC (ssRNA) [(G4C2)8 RNA non-G-quadruplex],,binds
